In US20210246166A1 (Bayer, published 2021):
Bridge positions count the residues as written; N and C are the ends. Square brackets hold non-standard residues; d marks the D form. Ends that are not written are not given here. Pro(cis-4-CF3) = O=C(O)[C@@H]1C[C@H](C(F)(F)F)CN1; Oic = O=C(O)[C@@H]1C[C@@H]2CCCC[C@@H]2N1; tBuAla = CC(C)(C)C[C@H](N)C(=O)O; Pen = CC(C)(S)[C@H](N)C(=O)O; 4Amb = NCc1ccc(C(=O)O)cc1; NMeC = CN[C@@H](CS)C(=O)O; NMeA = CN[C@@H](C)C(=O)O; Dab = NCC[C@H](N)C(=O)O; GABA = NCCCC(=O)O; Sar = CNCC(=O)O

T1: Recombinant human MASP1 enzyme (fragment corresponding to amino acids 297-699, C-terminal His Tag) (human, UniProt P48740 297-699)
T1 sequence: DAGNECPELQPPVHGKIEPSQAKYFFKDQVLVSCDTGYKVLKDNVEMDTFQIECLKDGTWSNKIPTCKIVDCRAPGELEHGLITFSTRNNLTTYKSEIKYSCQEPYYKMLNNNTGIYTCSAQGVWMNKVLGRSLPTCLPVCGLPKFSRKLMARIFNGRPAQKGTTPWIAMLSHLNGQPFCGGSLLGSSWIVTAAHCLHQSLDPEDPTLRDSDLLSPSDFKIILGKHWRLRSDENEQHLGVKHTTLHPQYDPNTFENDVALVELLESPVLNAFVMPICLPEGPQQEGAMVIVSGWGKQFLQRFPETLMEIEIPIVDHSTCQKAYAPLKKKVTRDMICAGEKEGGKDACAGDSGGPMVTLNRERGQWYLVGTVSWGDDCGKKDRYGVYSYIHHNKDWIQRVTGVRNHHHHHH

B1: AIC+SRS-((tBu)A)-P-((4-CF3)P)-IC+IPD-NH2 (peptide)
peptide: AICSRS[tBuAla]P[Pro(cis-4-CF3)]ICIPD-NH2
modifications: disulfide 3-11; N-terminus assumed
SMILES: CC[C@H](C)[C@H](NC(=O)[C@H](C)N)C(=O)N[C@H]1CSSC[C@@H](C(=O)N[C@H](C(=O)N2CCC[C@H]2C(=O)N[C@@H](CC(=O)O)C(N)=O)[C@@H](C)CC)NC(=O)[C@H]([C@@H](C)CC)NC(=O)[C@@H]2C[C@H](C(F)(F)F)CN2C(=O)[C@@H]2CCCN2C(=O)[C@H](CC(C)(C)C)NC(=O)[C@H](CO)NC(=O)[C@H](CCCNC(=N)N)NC(=O)[C@H](CO)NC1=O
B2: ((N-Me)G)-IC+SRSLP-(Oic)-I-(Pen)+IPD-NH2 (peptide)
peptide: [Sar]ICSRSLP[Oic]I[Pen]IPD-NH2
modifications: disulfide 3-11; N-terminus assumed
SMILES: CC[C@H](C)[C@H](NC(=O)CNC)C(=O)N[C@H]1CSSC(C)(C)[C@@H](C(=O)N[C@H](C(=O)N2CCC[C@H]2C(=O)N[C@@H](CC(=O)O)C(N)=O)[C@@H](C)CC)NC(=O)[C@H]([C@@H](C)CC)NC(=O)[C@@H]2C[C@@H]3CCCC[C@@H]3N2C(=O)[C@@H]2CCCN2C(=O)[C@H](CC(C)C)NC(=O)[C@H](CO)NC(=O)[C@H](CCCNC(=N)N)NC(=O)[C@H](CO)NC1=O
B3: aIC+SRSLP-(Oic)-I-(Pen)+I-NH2 (peptide)
peptide: [dA]ICSRSLP[Oic]I[Pen]I-NH2
modifications: disulfide 3-11; N-terminus assumed
SMILES: CC[C@H](C)[C@H](NC(=O)[C@H]1NC(=O)[C@H]([C@@H](C)CC)NC(=O)[C@@H]2C[C@@H]3CCCC[C@@H]3N2C(=O)[C@@H]2CCCN2C(=O)[C@H](CC(C)C)NC(=O)[C@H](CO)NC(=O)[C@H](CCCNC(=N)N)NC(=O)[C@H](CO)NC(=O)[C@@H](NC(=O)[C@@H](NC(=O)[C@@H](C)N)[C@@H](C)CC)CSSC1(C)C)C(N)=O
B4: Ac-IC+SRS-((tBu)A)-PPI-(Pen)+IPD-NH2 (peptide)
peptide: Ac-ICSRS[tBuAla]PPI[Pen]IPD-NH2
modifications: disulfide 2-10
SMILES: CC[C@H](C)[C@H](NC(C)=O)C(=O)N[C@H]1CSSC(C)(C)[C@@H](C(=O)N[C@H](C(=O)N2CCC[C@H]2C(=O)N[C@@H](CC(=O)O)C(N)=O)[C@@H](C)CC)NC(=O)[C@H]([C@@H](C)CC)NC(=O)[C@@H]2CCCN2C(=O)[C@@H]2CCCN2C(=O)[C@H](CC(C)(C)C)NC(=O)[C@H](CO)NC(=O)[C@H](CCCNC(=N)N)NC(=O)[C@H](CO)NC1=O
B5: (Dab)-IC+SRS-((tBu)A)-PPI-(Pen)+IP-NH2 (peptide)
peptide: [Dab]ICSRS[tBuAla]PPI[Pen]IP-NH2
modifications: disulfide 3-11; N-terminus assumed
SMILES: CC[C@H](C)[C@H](NC(=O)[C@@H](N)CCN)C(=O)N[C@H]1CSSC(C)(C)[C@@H](C(=O)N[C@H](C(=O)N2CCC[C@H]2C(N)=O)[C@@H](C)CC)NC(=O)[C@H]([C@@H](C)CC)NC(=O)[C@@H]2CCCN2C(=O)[C@@H]2CCCN2C(=O)[C@H](CC(C)(C)C)NC(=O)[C@H](CO)NC(=O)[C@H](CCCNC(=N)N)NC(=O)[C@H](CO)NC1=O
B6: ((N-Me)A)-IC+SRSLP-(Oic)-I-(Pen)+IPE-OH (peptide)
peptide: [NMeA]ICSRSLP[Oic]I[Pen]IPE-OH
modifications: disulfide 3-11; N-terminus assumed
SMILES: CC[C@H](C)[C@H](NC(=O)[C@H](C)NC)C(=O)N[C@H]1CSSC(C)(C)[C@@H](C(=O)N[C@H](C(=O)N2CCC[C@H]2C(=O)N[C@@H](CCC(=O)O)C(=O)O)[C@@H](C)CC)NC(=O)[C@H]([C@@H](C)CC)NC(=O)[C@@H]2C[C@@H]3CCCC[C@@H]3N2C(=O)[C@@H]2CCCN2C(=O)[C@H](CC(C)C)NC(=O)[C@H](CO)NC(=O)[C@H](CCCNC(=N)N)NC(=O)[C@H](CO)NC1=O
B7: AIC+SRSLP-(Oic)-I-((N-Me)C)+I-NH2 (peptide)
peptide: AICSRSLP[Oic]I[NMeC]I-NH2
modifications: disulfide 3-11; N-terminus assumed
SMILES: CC[C@H](C)[C@H](NC(=O)[C@@H]1CSSC[C@H](NC(=O)[C@@H](NC(=O)[C@H](C)N)[C@@H](C)CC)C(=O)N[C@@H](CO)C(=O)N[C@@H](CCCNC(=N)N)C(=O)N[C@@H](CO)C(=O)N[C@@H](CC(C)C)C(=O)N2CCC[C@H]2C(=O)N2[C@@H](C[C@@H]3CCCC[C@@H]32)C(=O)N[C@@H]([C@@H](C)CC)C(=O)N1C)C(N)=O
B8: HIC+SRS-((tBu)A)-PPI-((N-Me)C)+I-NH2 (peptide)
peptide: HICSRS[tBuAla]PPI[NMeC]I-NH2
modifications: disulfide 3-11; N-terminus assumed
SMILES: CC[C@H](C)[C@H](NC(=O)[C@@H]1CSSC[C@H](NC(=O)[C@@H](NC(=O)[C@@H](N)Cc2c[nH]cn2)[C@@H](C)CC)C(=O)N[C@@H](CO)C(=O)N[C@@H](CCCNC(=N)N)C(=O)N[C@@H](CO)C(=O)N[C@@H](CC(C)(C)C)C(=O)N2CCC[C@H]2C(=O)N2CCC[C@H]2C(=O)N[C@@H]([C@@H](C)CC)C(=O)N1C)C(N)=O
B9: ((N-Me)G)-IC+SRS-((tBu)A)-PPI-(Pen)+IP-NH2 (peptide)
peptide: [Sar]ICSRS[tBuAla]PPI[Pen]IP-NH2
modifications: disulfide 3-11; N-terminus assumed
SMILES: CC[C@H](C)[C@H](NC(=O)CNC)C(=O)N[C@H]1CSSC(C)(C)[C@@H](C(=O)N[C@H](C(=O)N2CCC[C@H]2C(N)=O)[C@@H](C)CC)NC(=O)[C@H]([C@@H](C)CC)NC(=O)[C@@H]2CCCN2C(=O)[C@@H]2CCCN2C(=O)[C@H](CC(C)(C)C)NC(=O)[C@H](CO)NC(=O)[C@H](CCCNC(=N)N)NC(=O)[C@H](CO)NC1=O
B10: ((N-Me)A)-IC+SRSLP-(Oic)-I-(Pen)+IPD-OH (peptide)
peptide: [NMeA]ICSRSLP[Oic]I[Pen]IPD-OH
modifications: disulfide 3-11; N-terminus assumed
SMILES: CC[C@H](C)[C@H](NC(=O)[C@H](C)NC)C(=O)N[C@H]1CSSC(C)(C)[C@@H](C(=O)N[C@H](C(=O)N2CCC[C@H]2C(=O)N[C@@H](CC(=O)O)C(=O)O)[C@@H](C)CC)NC(=O)[C@H]([C@@H](C)CC)NC(=O)[C@@H]2C[C@@H]3CCCC[C@@H]3N2C(=O)[C@@H]2CCCN2C(=O)[C@H](CC(C)C)NC(=O)[C@H](CO)NC(=O)[C@H](CCCNC(=N)N)NC(=O)[C@H](CO)NC1=O
B11: ((N-Me)G)-IC+SRS-((tBu)A)-PPI-(Pen)+IPP-NH2 (peptide)
peptide: [Sar]ICSRS[tBuAla]PPI[Pen]IPP-NH2
modifications: disulfide 3-11; N-terminus assumed
SMILES: CC[C@H](C)[C@H](NC(=O)CNC)C(=O)N[C@H]1CSSC(C)(C)[C@@H](C(=O)N[C@H](C(=O)N2CCC[C@H]2C(=O)N2CCC[C@H]2C(N)=O)[C@@H](C)CC)NC(=O)[C@H]([C@@H](C)CC)NC(=O)[C@@H]2CCCN2C(=O)[C@@H]2CCCN2C(=O)[C@H](CC(C)(C)C)NC(=O)[C@H](CO)NC(=O)[C@H](CCCNC(=N)N)NC(=O)[C@H](CO)NC1=O
B12: (Gamma-Abu)-IC+SRS-((tBu)A)-PPI-((N-Me)C)+IPD-NH2 (peptide)
peptide: [GABA]ICSRS[tBuAla]PPI[NMeC]IPD-NH2
modifications: disulfide 3-11; N-terminus assumed
SMILES: CC[C@H](C)[C@H](NC(=O)CCCN)C(=O)N[C@H]1CSSC[C@@H](C(=O)N[C@H](C(=O)N2CCC[C@H]2C(=O)N[C@@H](CC(=O)O)C(N)=O)[C@@H](C)CC)N(C)C(=O)[C@H]([C@@H](C)CC)NC(=O)[C@@H]2CCCN2C(=O)[C@@H]2CCCN2C(=O)[C@H](CC(C)(C)C)NC(=O)[C@H](CO)NC(=O)[C@H](CCCNC(=N)N)NC(=O)[C@H](CO)NC1=O
B13: (4-(Aminomethyl)benzoic acid)-IC+SRS-((tBu)A)-PPI-(Pen)+IPD-NH2 (peptide)
peptide: [4Amb]ICSRS[tBuAla]PPI[Pen]IPD-NH2
modifications: disulfide 3-11; N-terminus assumed
SMILES: CC[C@H](C)[C@H](NC(=O)c1ccc(CN)cc1)C(=O)N[C@H]1CSSC(C)(C)[C@@H](C(=O)N[C@H](C(=O)N2CCC[C@H]2C(=O)N[C@@H](CC(=O)O)C(N)=O)[C@@H](C)CC)NC(=O)[C@H]([C@@H](C)CC)NC(=O)[C@@H]2CCCN2C(=O)[C@@H]2CCCN2C(=O)[C@H](CC(C)(C)C)NC(=O)[C@H](CO)NC(=O)[C@H](CCCNC(=N)N)NC(=O)[C@H](CO)NC1=O

These binders were tested against T1, Recombinant human MASP1 enzyme … (assay: cell-based or functional assay).

human MASP1 IC50 [nM]	Binder
3.9	B1
4.05	B2
3.9	B3
4	[Sar]ICSRSLP[Oic]I[Pen]I[5‑Azaspiro(2.4)heptane‑1‑carboxylic acid]-OH (disulfide 3-11) [((N-Me)G)-IC+SRSLP-(Oic)-I-(Pen)+I-((5-Azaspiro[2.4]heptane-1-carboxylic acid)-OH]
16	B4
4	B5
3.9	B6
3.9	B7
3.8	B8
3.8	B9
3.9	B10
3.8	B11
3.8	AICSRS[tBuAla]P[Oic]I[NMeC]IPD-OH (disulfide 3-11; also: HCl salt) [AIC+SRS-((tBu)A)-P-(Oic)-I-((N-Me)C)+IPD-OH (HCl salt)]

What follows are binders tested against Recombinant human MASP2 enzyme (fragment corresponding to amino acids 297-686, C-terminal His Tag) (human, UniProt O00187 297-686) (assay: cell-based or functional assay).
Sequence of Recombinant human MASP2 enzyme (fragment corresponding to amino acids 297-686, C-terminal His Tag) (O00187 other isoform, or with tags, fused parts or gaps limits assumed): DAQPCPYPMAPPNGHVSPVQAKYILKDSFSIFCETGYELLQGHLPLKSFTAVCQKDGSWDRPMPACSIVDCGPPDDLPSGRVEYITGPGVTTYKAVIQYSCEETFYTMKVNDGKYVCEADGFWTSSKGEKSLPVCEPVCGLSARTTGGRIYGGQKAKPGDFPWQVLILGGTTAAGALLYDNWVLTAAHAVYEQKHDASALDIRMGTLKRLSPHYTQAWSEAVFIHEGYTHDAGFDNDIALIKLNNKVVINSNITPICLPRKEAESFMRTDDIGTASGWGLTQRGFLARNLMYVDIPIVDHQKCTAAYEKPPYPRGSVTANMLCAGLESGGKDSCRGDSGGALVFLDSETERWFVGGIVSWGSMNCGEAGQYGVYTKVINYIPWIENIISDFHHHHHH

human MASP2 IC50 [nM]	Binder
930	B1
150	B2
100	B3
57	[Sar]ICSRSLP[Oic]I[Pen]I[5‑Azaspiro(2.4)heptane‑1‑carboxylic acid]-OH (disulfide 3-11) [((N-Me)G)-IC+SRSLP-(Oic)-I-(Pen)+I-((5-Azaspiro[2.4]heptane-1-carboxylic acid)-OH]
64	B5
170	B6
170	B7
140	B8
44	B9
210	B12
160	B10
63	B11
210	AICSRS[tBuAla]P[Oic]I[NMeC]IPD-OH (disulfide 3-11; also: HCl salt) [AIC+SRS-((tBu)A)-P-(Oic)-I-((N-Me)C)+IPD-OH (HCl salt)]
8.1	B13
